8 molecules from patent KR20160003317A (dated 2016) can be followed below.

The labels stand for the following.
B1: SC05-179 (scFv)
scFv: EVQLVESGGGLVKPGGSLGLSCAASGFFFSDYSMSWIRQAPGKGLEWLSNISGSGHSTKYAESMRGRITISRDNAKKSLSLQLNSLRAEDTAVYFCVRGGGYRMDVWGQGTTVTVSSGTGGSGGTGSGTGGSTQSALTQPRSVPGSPGQSVTISCTGTSSDVGGYNYVSWYQQHPGKAPKLMIYDVSKRPSGVPDRFSGSKSGNTASLTVSGLQAEDEADYYCSSYAGSNNFVVFGGGTKLTVL
notes: single-chain phage antibody: the scFv stood on phage in the ELISA
B2: SC06-049 (scFv)
scFv: QVQLVQSGAEVKKPGESLKISCKGSGYSFTSYWIGWVRQMPGKGLEWMGIIYPGDSDTRYSPSFQGQVTISADKSIGTAYLQWSSLKASDTAMYYCARLFRVRGGHFDSWGQGTLVTVSSGTGGSGGTGSGTGGSTQSALTQPASVSGSPGQSITISCTGTNSDVGGYNYVSWYQQHPGKAPKLLIYDVTNRPSGVSNRFSASKSGNTASLTISGLQAEDEADYYCSSFTSSSTRVFGGGTKLTVL
notes: as for B1
B3: SC06-050 (scFv)
scFv: EVQLVESGPEVKKPGASVKVSCEASGYNLDNYGITWVRQAPGQGLEWLGWISAYNAKTEYGQRLQGRVTMTTDTATSTAYLELRSLRSDDTAVYYCARVLGYRGGWYDEGDAFDVWGQGTMVTVSSGTGGSGGTGSGTGGSTDIQLTQSPSFLSASVGDRVTITCRASQGIRSHLAWYQQKAGKAPKLLIYAASTLQSGVPSRFSGSGSGTEFTLTISSLQPDDFAAYYCQQLNTYPITFGQGTRLEIK
notes: single-chain phage antibody: the scFv stood on phage in the ELISA; also called SC05-050
B4: SC05-187 (scFv)
scFv: EVQLVQSGAEVKKPGESLKISCKGSGYSFTKYWIGWVRQMPGKGLEWMGIIYPGDSDTRYSPSFQGQVTISADKSISTAYLQWSSLKASDTAMYYCARGSGIATGNSFDSWGQGTLVTVSSGTGGSGGTGSGTGGSTQTVVTQEPSLTVSPGGTVTLTCASSTGAVTSGYYPNWFQQKPGQAPRALIYSTSKKHSWTPARFSGSLLGGRAALTLSGAQPEDEADYYCLLSYGGARVFGGGTKLTVL
notes: as for B1
B5: SC06-429 (scFv)
scFv: QVQLVQSGAEVKNPGESLKISCKGSGYTFTSYWIGWVRQMPGKGLEWMGSIYPGDSDTRYSPSFQGQVTISVDKSISTAYLQWSSLKASDTAMYYCARQYRAGSTTRFDPWGQGTLVTVSSGTGGSGGTGSGTGGSTDVVMTQSPLSLPVTPGEPASISCRSSQSLRHRNGNNYLDWYLQKPGQSPQLLIYLGSNRASGVPDRFSGSGSGTDFTLKISRVEAEDVGIYYCMQALQTPLTFGGGTKVEIK
notes: as for B1
B6: SC06-432 (scFv)
scFv: QLQLQESGPGLVKPSQTLSLTCTVSGGSISSGGYYWSWIRQHPGKGLEWIGYIYYSGSTYYNPSLKSRVTISVDTSKNQFSLKLSSVTAADTAVYYCARERILDRMNDYWGQGTLVTVSSGTGGSGGTGSGTGGSTQSVVTQPPSVSGAPGQRVTISCTGSSSNIGAGYDVHWYQQLPGTAPKLLIYGNSNRPSGVPDRFSGSKSGTSASLAITGLQAEDEADYYCQSSDSSLNILFGGGTKLTVL
notes: as for B1
B7: SC06-016 (scFv)
scFv: QVQLVQSGPEVKKPGASVTVSCKASGYSFSSYGISWVRQAPGQGLEWMGRIIPVGGNTLYSQMFQGRVTMTSDTSTSTVYLELSSLRSEDTAVYFCARDGGRWQFDYWGQGTLVTVSSGTGGSGGTGSGTGGSTDIQLTQSPSSVSASVGDRVTITCRASQGISNWLAWYQQKPGKAPELLIYAASSLQSGVPPRFSGSASGTDFTLTISSLQPEDFATYYCQQSKNFPYTFGQGTKVEIK
notes: as for B1
B8: SC06-043 (scFv)
scFv: EVQLVESGAEVKKPGESLKISCKGSGYSFTSYWIGWVRQMPGKGLEWMGIIYPGDSDTRYSPSFQGQVTISADKSISTAYLQWSSLKASDTAMYYCARRYCSGGTCSDGFDIWGQGTMVTVSSGTGGSGGTGSGTGGSTQSALTQPPSASGSPGQSVTISCTGTSSDVGGYNYVSWYQQHPGKAPKLMIYEVSKRPSGVPDRFSGSKSGNTASLTVSGLQAEDEADYYCSSYAGSNNLVFGGGTKLTVL
notes: as for B1

In this experiment the target is T1, 송아지 혈청 알부민(BSA) (bovine (printed: 송아지 혈청 알부민), UniProt P02769 25-607).
T1 construct: also called bovine serum albumin
T1 sequence (P02769 25-607 limits assumed): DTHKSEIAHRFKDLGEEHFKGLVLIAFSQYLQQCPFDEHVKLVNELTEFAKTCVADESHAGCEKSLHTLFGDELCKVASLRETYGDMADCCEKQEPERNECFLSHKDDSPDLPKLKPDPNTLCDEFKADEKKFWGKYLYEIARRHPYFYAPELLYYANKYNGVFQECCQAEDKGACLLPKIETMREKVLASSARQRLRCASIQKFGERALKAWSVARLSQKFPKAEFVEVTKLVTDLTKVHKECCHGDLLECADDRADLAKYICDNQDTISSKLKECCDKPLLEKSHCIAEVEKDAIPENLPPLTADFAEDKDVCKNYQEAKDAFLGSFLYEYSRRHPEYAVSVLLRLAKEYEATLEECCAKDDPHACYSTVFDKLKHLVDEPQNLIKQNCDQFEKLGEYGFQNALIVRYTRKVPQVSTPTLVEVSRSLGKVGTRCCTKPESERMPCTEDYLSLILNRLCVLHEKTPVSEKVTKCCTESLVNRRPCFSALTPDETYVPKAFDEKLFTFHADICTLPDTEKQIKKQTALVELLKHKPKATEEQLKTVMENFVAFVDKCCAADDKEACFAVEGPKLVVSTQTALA
As to the kind of experiment: phage ELISA, 1% BSA coated, anti-M13-peroxidase, absorbance 492 nm.
Turning to B1, the binding result is recorded as “no binding”. With B2 the entry was “no binding”; with B3, “no binding”; with B4, “no binding”. Turning to B5, the binding result is given as “no binding”. With B6 the entry was “no binding”.

Regarding B7, the binding result was “no binding”. With B8 the entry was “no binding”.
